Experimental findings from patent US20160299151 are described below.

One series concerns the target T1, L-alanine-L-glutamine.
T1 chain: AQ

In another series the target is T2, L-glycine-L-glutamine.
T2 chain: GQ

B1: holo-BpsA (BpsA pre-activated by Sfp as in Example 1), His6-tagged recombinant polypeptide (protein)
chain: MTLQETSVLEPTLQGTTTLPGLLAQRVAEHPEAIAVAYRDDKLTFRELASRSAALADYLEHLGVSADDCVGLFVEPSIDLMVGAWGILNAGAAYLPLSPEYPEDRLRYMIENSETKIILAQQRLVSRLRELAPKDVTIVTLRESEAFVRPEGTEAPAARSARPDTLAYVIYTSGSTGKPKGVMIEHRSIVNQLGWLRETYAIDRSKVILQKTPMSFDAAQWEILSPANGATVVMGAPGVYADPEGLIETIVKHNVTTLQCVPTLLQGLIDTEKFPECVSLQQIFSGGEALSRLLAIQTTQEMPGRALINVYGPTETTINSSSFPVDPADLDEGPQSISIGSPVHGTTYHILDKETLKPVGVGEIGELYIGGIQLARGYLHRDDLTAERFLEIELEEGAEPVRLYKTGDLGQWNNDGTVQFAGRADNQVKLRGYRVELDEISLAIENHDWVRNAAVIVKNDGRTGFQNLIACIELSEKEAALMDQGNHGSHHASKKSKLQVKAQLSNPGLRDDAELAARPAFDLEGAEPTPEQRARVFARKTYRFYEGGAVTQADLLGLLGATVTAGYSRKAADLAPAELGQILRWFGQYISEERLLPKYGYASPGALYATQMYFELEGVGGLKPGYYYYQPVRHQLVLISEREATGKATAQIHFIGKKSGIEPVYKNNILEVLEIETGHMVGLFEQILPAYGLDIHDRAYEPAVKDLLDVADEDYYLGTFELVPHAGARDDQAEVYVQTHGGKVAGLPEGQYRYENGELTRFSDDIVLKKHVIAINQSVYQAASFGISVYSRAEEEWLKYITLGKKLQHLMMNGLNLGFMSSGYSSKTGNPLPASRRMDAVLGANGVDSAPMYFFVGGRISDEQIGHEGMREDSVHMRGPAELIRDDLVSFLPDYMIPNRVVVFDRLPLSANGKIDVKALAASDQVNAELVERPFVAPRTETEKEIAAVWEKALRRENASVQDDFFESGGNSLIAVGLVRELNARLGVSLPLQSVLESPTIEKLARRLEREVAQESSRFVRLHAETGKARPVICWPGLGGYPMNLRSLAGEIGLGRSFYGVQSYGINEGETPYETITEMAKKDIEALKEIQPAGPYTLWGYSFGARVAFETAYQLEQAGEKVDNLFLIAPGSPKVRAENGKVWGREASFANRGYTTILFSVFTGTISGPDLDRCLETVTDEASFAEFISELKGIDVDLARRIISVVGQTYEFEYSFHELAERTLQAPISIFKAVGDDYSFLENSSGYSAEPPTVIDLDADHYSLLREDIGELVKHIRYLLGE
As to B1, the “blue pigment formation (A590 after resuspension in DMSO) after 72 hours at 25 C with 4 mM substrate” value is “In each case except the no substrate control, blue pigment formation was observed, suggesting that an indigoidine like product had indeed been formed” in the series with L-alanine-L-glutamine and “In each case except the no substrate control, blue pigment formation was observed, suggesting that an indigoidine like product had indeed been formed” with L-glycine-L-glutamine.
